From article PMC9118981

What was measured:
[1] = substrate: O=c1[nH]c(=O)[nH]c(=O)[nH]1; assay: purified protein; format: biochemical, Pseudolabrys sp. Root1462; conditions: 50.0 °C
[2] = substrate: O=c1[nH]c(=O)[nH]c(=O)[nH]1; assay: purified protein; format: biochemical, Bradyrhizobium diazoefficiens; conditions: 50.0 °C

B1: CAH-PR (Pseudolabrys sp. Root1462) (protein)
chain: MPIAKVHRISASSPNDVSGLEAAIASGRIDPKGVIAVLGKTEGNGLVNDFSRGLATTALTLLFERHLPQAEAAQICLVMSGGTEGGMAPHWIVFERGKGEGGRSPALAIGRAHTLQLPYEQLGRLGEVDQVAAGVRAAMEDAGIADPADVHFVQIKCPLLTAQRIAEAEARGAAVATRDTLKSMSLSRAASALGAAVALGEIDRAAITEAQIGSDWSLWSGRASTSAGIELVNHEIVVLGMSKDWSGPLAIDHAVMRDGIDIEPVRAALQRLGLGAAGQLDPAQRNKMVALLAKAEASHDGRLRGHRHTMLDDSDIASTRHARGFVCGALAGLVGHAEIYVSGGAEHQGPDGGGPVAVIVDRG
notes: codon-optimised gene expressed in Bacillus subtilis, purified; no tag mentioned
Protein B1 has a Km [1] of 115 ± 36 µM and a kcat [1] of 10.1 ± 2.7 s⁻¹.

B2: CAH-BD (Bradyrhizobium diazoefficiens USDA 110) (protein)
chain: MRTTSVGVFKIVTKGPGDVSGLMAMIGSGAIDPKSILAVLGKTEGNGGVNDFTREYAVAALCTALAPQLGLSPEEVEQRIAFVMSGGTEGVLSPHITVFTRREVERRPAGLSGKRLSIGMAHTRDFLPEELGRAAQIAETAAAVKAAMADAGIADPADVHFVQIKCPLLTSDRVEAASARGNKTATTSAYGSMAYSRGASALGVAVALGETGSDISDGDVLRRYDLFSKVASTSAGIELMHNVVIVLGNSAASASEFEIGHAVMNDAIDAAAVTSALKCVGLGVAPQAEAGRELVNIFAKAEASPDGSVRGFRHTMLEDTDISSTRHARAAVGGLIAGLAGTGAVYVSGGAEHQGPAGGGPVAVIARLSD
notes: as for B1
B2 showed a Km [2] of 103 ± 29 µM and a kcat [2] of 10.6 ± 1.9 s⁻¹.
